The source of these data is patent US20210024640A1 (REMD BIOTHERAPEUTICS, published 2021).

To fix the notation:
T1: OX40 on HT1080 OX40 stable cell line (Homo sapiens (Human), UniProt P43489 29-277)
T1 sequence: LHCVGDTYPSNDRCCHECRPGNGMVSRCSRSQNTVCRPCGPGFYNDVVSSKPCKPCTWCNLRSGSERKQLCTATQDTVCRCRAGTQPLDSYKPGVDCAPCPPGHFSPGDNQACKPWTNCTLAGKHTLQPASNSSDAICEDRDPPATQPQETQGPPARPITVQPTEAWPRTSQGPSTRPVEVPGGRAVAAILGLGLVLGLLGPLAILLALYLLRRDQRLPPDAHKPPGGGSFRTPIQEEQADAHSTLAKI

T2: murine OX40 (murine, UniProt P47741 20-211, limits assumed)
T2 construct: also called MuOX40; mouse OX40
T2 sequence (looked up): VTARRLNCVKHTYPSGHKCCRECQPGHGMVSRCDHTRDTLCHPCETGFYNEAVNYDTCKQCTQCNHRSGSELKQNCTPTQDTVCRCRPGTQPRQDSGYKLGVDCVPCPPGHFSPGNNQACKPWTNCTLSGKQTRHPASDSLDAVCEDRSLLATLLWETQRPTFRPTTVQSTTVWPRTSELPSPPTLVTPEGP

T3: human OX40 (NP_003318) (human, UniProt P43489 29-214, limits assumed)
T3 construct: also called HuOX40; CD134
T3 sequence: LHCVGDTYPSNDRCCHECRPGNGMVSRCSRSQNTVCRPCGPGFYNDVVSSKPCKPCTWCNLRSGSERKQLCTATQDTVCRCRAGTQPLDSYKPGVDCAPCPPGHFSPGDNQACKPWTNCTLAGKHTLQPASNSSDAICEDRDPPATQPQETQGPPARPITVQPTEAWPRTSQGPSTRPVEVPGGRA

T4: OX40-his (Homo sapiens (Human), UniProt P43489 29-214, limits assumed)
T4 construct: Analyte of the Biacore 8K assay; also called Ag OX40-his; Antigen OX40-his; not shown: His tag
T4 sequence: T3 sequence

B1: humanized Ab REMD 277 (VH2-1/VL2-2) (antibody, human IgG1, kappa, V domains shown)
VH: EVQLVQSGAEVKKPGESLKISCKGSGYTFTSYVMHWVRQMPGKGLEWMGYINPYNDGTKYNEKFKGQVTISADKSISTAYLQWSSLKASDTAMYYCARYYGSNYAMDYWGQGTMVTVSS
VL: EIVMTQSPATLSASPGERVTLSCRASQDIRNYLNWYQQKPGGAVRLLIYYTSRLHSGVPARFSGSGSGTDYTLTISSLEPEDYAVYFCQQGNTLPWTFGQGTKVEIKR
B2: murine antibody A4 (13C2G10F10) (antibody, V domains shown)
VH: EVQLQQSGPELVKPGASVKMSCKASGYTFTSYIMHWVKQKPGQGLEWIGYINPYNDGTKYNEKFKGKATLTSDKSSSTAYMELSSLTSEDSAVYYCANYYGSSYTMDYWGQGTSVTVSS
VL: DIQMTQTTSSLSASLGDRVTISCRASQDIRNYLNWYQQKPDGSVKLLIYYTSRLHSGVPSRFSGSGSGTDYSLTISNLEQEDIATYFCQQGNTLPWTFGGGTKLEIK
notes: also called MAb A4; H4/L4
B3: murine antibody A3 (14F2C2D7) (antibody, V domains shown)
VH: QVQLKESGPGLVAPSQSLSITCTVSGFSLSSYGVHWVRQPPGKGLEWLGVIWAGGSTDYNSALMSRLSISKDNSKSQVVLKMNSLQTDDTAMYYCAREEVWDWGQGTLVTVSA
VL: B2 VL with R30S, S43T, H55Q, W96L, G100A, I106L
notes: also called MAb A3; H3/L3
B4: murine antibody A5 (40H11C2F5) (antibody, V domains shown)
VH: EVQLQQSGPELVKPGASVKISCKASGYTFTENYMNWVKQSHGKSLEWIGDINRNNGGTRYNQKFKGKATLTVDKSSSTDYMELRSLTSEDSAVYYCGGTVVGYFDVWGTGTTVTVSS
VL: B2 VL with T7I, T8I, S9T, A25S, R30S, S43T, H55K
notes: also called MAb A5; H5/L5
B5: murine antibody A6 (2G2E2D8) (antibody, V domains shown)
VH: B2 VH with I33V, S103N, T105A
VL: B2 VL with S43T
notes: also called MAb A6; Murine A6
B6: humanized Ab REMD 277.1 (VH2-1/VL2-1) (antibody, human IgG1, kappa, V domains shown)
VH: B1 VH
VL: B1 VL with M4L, A13L, V19A, G42Q, V44P, V58I, Y71F, Y83F, F87Y
B7: humanized Ab REMD 277.2 (VH2-1/VL5BM) (antibody, human IgG1, kappa, V domains shown)
VH: B1 VH
VL: DIQMTQSPSSLSASVGDRVTISCRASQDIRNYLNWYQQKPGKTVKLLIYYTSRLHSGVPSRFSGSGSGTDYTFTISSLQPEDIATYFCQQGNTLPWTFGGGTKLEIKR
B8: murine-human chimeric antibody derived from murine antibody A6 (chimeric IgG) (antibody, V domains shown)
VH: B2 VH with I33V, S103N, T105A
VL: B7 VL with S7T, P8T, V15L, G41D, K42G, T72S, F73L, S77N, Q79E, P80Q
notes: also called chimeric OX40 Ab

Substitutions are numbered along the chain they refer to. Where “and” joins values, the source holds several entries; their conditions need not be identical. Equal entries are not always repeated.

In one experiment the target is T1, OX40 on HT1080 OX40 stable cell line. Kind of experiment: cell-based or functional assay.
Take B1: the “cell-based functional assay in the absence of OX40L, EC50” value was determined as 1.56 nM.

The next experiment shares this target. Kind of experiment: cell-based or functional assay. This is another data set of the same source.
For B2, the “HT1080 + OX4OL/IL-8 Antagonist Assay IC50” value worked out at 1.35 nM, the “HT1080 Agonist Assay EC50 (IL-8 secretion)” value (“HT1080 Agonist Assay EC50” for short) stood at 8.08 nM and the “HT1080 Agonist Assay nBMAX” value turned out to be 1.52.

With B3, the “HT1080 Agonist Assay EC50” value was determined as 6.74 nM and the “HT1080 Agonist Assay nBMAX” value stood at 4.49.

For the molecule B4, the “HT1080 Agonist Assay EC50” value is 2.8 nM and the “HT1080 Agonist Assay nBMAX” value was found to be 3.2.

As to B5, the “HT1080 Agonist Assay EC50” value was found to be 1.56 nM and the “HT1080 Agonist Assay nBMAX” value was 4.54.

A further experiment has the same target. Description: cell-based or functional assay. This is another data set of the same source.
For B6, the “HT1080 + OX40L Antagonist Assay IC50” value was determined as 1.53 NM.

In the case of B7, the “HT1080 + OX40L Antagonist Assay IC50” value amounted to 3.52 NM.

Take B1: the “HT1080 + OX40L Antagonist Assay IC50” value was 0.479 NM.

Take B8: the “HT1080 + OX40L Antagonist Assay IC50” value stood at 109 NM.

Take B5: the “HT1080 + OX40L Antagonist Assay IC50” value came out at 1.34 NM.

The target in the next experiment is T2, murine OX40. Description: ELISA, murine OX40 binding.
As for B2, the binding result was “no binding”.

Consider B3, for which the binding result is reported as “no binding”.

Take B4: the binding result is given as “no binding”.

With B5, the binding result is “no binding”.

For another experiment, the target named is T5, cyno OX40 (cyno).
T5 construct: also called CyOX40
Description: ELISA, binding to cyno OX40. Background: ELISA stands for enzyme-linked immunosorbent assay.
Consider B2, for which the EC50 (usually the concentration that produces a half-maximal response) worked out at 0.0305 nM.

B3 gave an EC50 of 0.0171 nM.

In the case of B4, a half-maximal effect (EC50) was put at 0.0143 nM.

As to B5, the EC50 turned out to be 0.0446 nM.

The target in another experiment is T3, human OX40 (NP_003318). Description: ELISA, binding to human OX40.
With B2, the EC50 is 0.0157 nM and 0.0151 nM.

As for B3, the EC50 is 0.0128 nM and 0.0136 nM.

Turning to B4, the half-maximal effective concentration (EC50) was 0.0081 nM and 0.0079 nM.

On to B5, for which the EC50 is 0.0275 nM and 0.0272 nM.

The next experiment deals with T3, human OX40 (NP_003318). Kind of experiment: ELISA, binding to human OX40. The source holds these as a separate data set.
The molecule B6 gave an EC50 of 0.96 nM.

B7 yielded an EC50 of 3.1 nM.

Take B1: the concentration giving a half-maximal response (EC50) was 0.6 nM.

B8: the EC50 turned out to be 0.028 nM.

The target in another experiment is T1, OX40 on HT1080 OX40 stable cell line. Description: cell-based or functional assay. This is another data set of the same source.
As to B6, the “EC50 (read off the curve), IL-8 secretion, OX40L-free Ab agonist assay” value is about 1 nM.

The target of a further experiment is T3, human OX40 (NP_003318). Description: OX40L/OX40 blocking ELISA, purified proteins.
For B2, half-maximal inhibition (IC50) was put at 0.0683 nM.

For B4, the IC50 (in general, the concentration at which inhibition is half-maximal) is 0.0382 nM.

The next experiment deals with T4, OX40-his. Kind of experiment: SPR Biacore (summary table; repeats Table 6). Here is the method:
(§1) The affinities of purified antibody binding to OX40-his was determined using a Surface Plasmon Resonance (SPR) biosensor, Biacore 8k. Antibodies were immobilized on the sensor chip through capture method. Antigen OX40-his was used as the analyte. The data of dissociation (kd) and association (ka) rate constants were obtained using Biacore 8k evaluation software. The equilibrium dissociation constants (KD) were calculated from the ratio of kd over ka.
On the technique in general: Surface plasmon resonance follows binding to a sensor surface in real time, without labels.
Consider B6, for which the Kd – broadly, the free concentration of one partner at which half of the binding sites on the other are occupied at equilibrium, for simple one-to-one binding – amounted to 13.8 nM.

On to B7, for which binding was characterised by a dissociation constant (Kd) of 5.94 nM.

Molecule B1 gave a Kd of 6.3 nM.

The molecule B8 came in with a Kd of 9.18 nM.

In a further experiment the target is T4, OX40-his. Kind of experiment: SPR Biacore 8K, antibody captured, OX40-his as analyte. As to the method:
as §1
With B6, the Kd was 13.8 nM; the koff (in general, the first-order rate constant of dissociation) was 0.000848 s⁻¹; the kon – broadly, a measure of how fast the partners come together – is 61400 M⁻¹ s⁻¹.

B7: the Kd was determined as 5.94 nM, the koff came to 0.000119 s⁻¹ and the kon amounted to 20000 M⁻¹ s⁻¹.

For B1, the Kd is 6.3 nM, the koff was 0.000178 s⁻¹ and the kon came to 28200 M⁻¹ s⁻¹.

The molecule B8 registered a Kd of 9.18 nM, a koff of 0.000865 s⁻¹ and a kon of 94200 M⁻¹ s⁻¹.

The next experiment addresses T3, human OX40 (NP_003318). Description: ELISA, binding to human OX40 (summary table; repeats Table 3).
Molecule B5 returned an EC50 of 0.0275 nM.

For the next experiment, the target named is T3, human OX40 (NP_003318). Description: OX40L/OX40 blocking ELISA, purified proteins; OX40L/OX40 ELISA blocking, purified proteins.
Take B3: the IC50 turned out to be 0.0293 nM.
